Consider 2 substances from patent US20180140690A1.

The target of experiment [1] is XC-chemokine receptor 1 (XCR1) on mouse dermal dendritic cells (mouse) (UniProt Q9R0M1). Kind of experiment: cell-based or functional assay.
For experiment [2] the target is unchanged. Briefly: flow cytometry of ear skin cells 24 h after laser-assisted delivery of the vaccibody in vivo; staining depended on XCR1 expression (Xcr1-/- mice). For orientation: A flow cytometer gives signals particle by particle.

Sequence of UniProt Q9R0M1 (Q9R0M1 whole entry): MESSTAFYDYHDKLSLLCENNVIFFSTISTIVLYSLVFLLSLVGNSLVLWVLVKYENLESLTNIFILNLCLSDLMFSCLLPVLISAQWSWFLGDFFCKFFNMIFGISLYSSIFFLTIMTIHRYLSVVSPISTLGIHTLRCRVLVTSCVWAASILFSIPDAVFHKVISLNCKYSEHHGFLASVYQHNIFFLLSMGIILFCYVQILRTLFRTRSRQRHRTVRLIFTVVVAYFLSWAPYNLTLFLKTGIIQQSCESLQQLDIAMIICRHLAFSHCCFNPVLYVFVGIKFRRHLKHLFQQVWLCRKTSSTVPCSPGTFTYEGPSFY

In experiment [1], “XCL1-OVA vaccibodies (from UniProt P47993 22-114; P01860 99-377; P01012 2-386)” registered an OT-I CD8+ T cell proliferation in ear-draining lymph nodes (CTV dilution), against free OVA on a per molecule basis of 15 times and an OT-II CD4+ T cell proliferation in ear-draining lymph nodes (CTV dilution), against free OVA on a per molecule basis of 3 times.
In experiment [2], “XCL1-mCherry vaccibodies (from UniProt P47993 22-114; P01860 99-377)” returned a percent of XCR1+ dermal DCs stained of 15%.
